From article PMC4947157

Experiments:
[1] = target: T1, FANCD2;FANCI (Homo sapiens;Homo sapiens, UniProt Q9BXW9;Q9NVI1 1-1451;1-1328, |); assay: EMSA; supershifted by anti-HA; 0.5 ug protein, 1 nM DNA; titrated 0.125-0.5 ug; EMSA: 25 mM Tris-HCl pH 7.5, 100 mM NaCl, 6% glycerol, 1 mM DTT, 10 ul, room temperature 1 h; 4% PAGE in 0.4x TBE at 4 C
[2] = target: T1, FANCD2;FANCI; assay: EMSA; 0.5 ug protein, 1 nM DNA; significantly stronger than non-crosslinked fork; titrated 0.125-0.5 ug; EMSA: 25 mM Tris-HCl pH 7.5, 100 mM NaCl, 6% glycerol, 1 mM DTT, 10 ul, room temperature 1 h; 4% PAGE in 0.4x TBE at 4 C

T1 sequence (Q9BXW9 whole entry, chain 1 of 2): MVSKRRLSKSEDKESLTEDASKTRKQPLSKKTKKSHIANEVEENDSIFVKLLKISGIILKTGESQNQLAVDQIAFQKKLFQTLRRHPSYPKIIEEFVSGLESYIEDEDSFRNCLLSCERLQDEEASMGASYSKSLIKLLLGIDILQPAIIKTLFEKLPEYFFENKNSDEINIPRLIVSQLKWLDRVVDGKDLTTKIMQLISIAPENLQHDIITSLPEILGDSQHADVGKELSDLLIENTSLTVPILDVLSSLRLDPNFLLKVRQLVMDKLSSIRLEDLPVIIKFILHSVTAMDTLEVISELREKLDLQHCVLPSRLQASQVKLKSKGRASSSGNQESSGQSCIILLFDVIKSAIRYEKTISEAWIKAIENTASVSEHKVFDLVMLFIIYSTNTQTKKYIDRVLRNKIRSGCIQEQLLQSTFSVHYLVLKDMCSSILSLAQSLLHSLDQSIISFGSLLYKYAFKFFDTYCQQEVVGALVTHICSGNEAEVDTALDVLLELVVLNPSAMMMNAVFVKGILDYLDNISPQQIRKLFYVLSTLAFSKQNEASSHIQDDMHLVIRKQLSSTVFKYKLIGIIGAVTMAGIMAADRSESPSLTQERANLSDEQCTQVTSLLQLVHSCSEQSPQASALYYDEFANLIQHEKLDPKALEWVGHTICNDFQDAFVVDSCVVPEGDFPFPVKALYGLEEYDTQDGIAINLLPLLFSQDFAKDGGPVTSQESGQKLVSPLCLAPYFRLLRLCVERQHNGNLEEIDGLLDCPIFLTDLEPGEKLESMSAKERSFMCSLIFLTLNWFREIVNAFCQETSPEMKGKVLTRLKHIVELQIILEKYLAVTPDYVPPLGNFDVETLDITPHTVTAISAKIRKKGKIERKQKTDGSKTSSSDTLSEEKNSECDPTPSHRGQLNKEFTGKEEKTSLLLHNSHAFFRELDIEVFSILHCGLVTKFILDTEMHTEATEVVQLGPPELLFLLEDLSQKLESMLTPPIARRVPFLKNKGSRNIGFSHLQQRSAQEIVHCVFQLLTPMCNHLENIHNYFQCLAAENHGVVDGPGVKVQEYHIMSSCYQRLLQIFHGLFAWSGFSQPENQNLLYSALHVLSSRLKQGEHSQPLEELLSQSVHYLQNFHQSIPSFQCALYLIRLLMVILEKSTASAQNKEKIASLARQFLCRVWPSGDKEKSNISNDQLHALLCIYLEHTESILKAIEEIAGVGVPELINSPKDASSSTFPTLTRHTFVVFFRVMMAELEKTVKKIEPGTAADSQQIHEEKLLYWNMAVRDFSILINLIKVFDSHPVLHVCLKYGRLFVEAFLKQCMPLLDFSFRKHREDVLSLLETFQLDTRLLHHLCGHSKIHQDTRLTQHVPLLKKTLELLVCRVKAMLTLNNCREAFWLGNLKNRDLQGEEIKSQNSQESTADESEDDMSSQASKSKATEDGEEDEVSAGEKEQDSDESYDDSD
T1 sequence (Q9NVI1 whole entry, chain 2 of 2): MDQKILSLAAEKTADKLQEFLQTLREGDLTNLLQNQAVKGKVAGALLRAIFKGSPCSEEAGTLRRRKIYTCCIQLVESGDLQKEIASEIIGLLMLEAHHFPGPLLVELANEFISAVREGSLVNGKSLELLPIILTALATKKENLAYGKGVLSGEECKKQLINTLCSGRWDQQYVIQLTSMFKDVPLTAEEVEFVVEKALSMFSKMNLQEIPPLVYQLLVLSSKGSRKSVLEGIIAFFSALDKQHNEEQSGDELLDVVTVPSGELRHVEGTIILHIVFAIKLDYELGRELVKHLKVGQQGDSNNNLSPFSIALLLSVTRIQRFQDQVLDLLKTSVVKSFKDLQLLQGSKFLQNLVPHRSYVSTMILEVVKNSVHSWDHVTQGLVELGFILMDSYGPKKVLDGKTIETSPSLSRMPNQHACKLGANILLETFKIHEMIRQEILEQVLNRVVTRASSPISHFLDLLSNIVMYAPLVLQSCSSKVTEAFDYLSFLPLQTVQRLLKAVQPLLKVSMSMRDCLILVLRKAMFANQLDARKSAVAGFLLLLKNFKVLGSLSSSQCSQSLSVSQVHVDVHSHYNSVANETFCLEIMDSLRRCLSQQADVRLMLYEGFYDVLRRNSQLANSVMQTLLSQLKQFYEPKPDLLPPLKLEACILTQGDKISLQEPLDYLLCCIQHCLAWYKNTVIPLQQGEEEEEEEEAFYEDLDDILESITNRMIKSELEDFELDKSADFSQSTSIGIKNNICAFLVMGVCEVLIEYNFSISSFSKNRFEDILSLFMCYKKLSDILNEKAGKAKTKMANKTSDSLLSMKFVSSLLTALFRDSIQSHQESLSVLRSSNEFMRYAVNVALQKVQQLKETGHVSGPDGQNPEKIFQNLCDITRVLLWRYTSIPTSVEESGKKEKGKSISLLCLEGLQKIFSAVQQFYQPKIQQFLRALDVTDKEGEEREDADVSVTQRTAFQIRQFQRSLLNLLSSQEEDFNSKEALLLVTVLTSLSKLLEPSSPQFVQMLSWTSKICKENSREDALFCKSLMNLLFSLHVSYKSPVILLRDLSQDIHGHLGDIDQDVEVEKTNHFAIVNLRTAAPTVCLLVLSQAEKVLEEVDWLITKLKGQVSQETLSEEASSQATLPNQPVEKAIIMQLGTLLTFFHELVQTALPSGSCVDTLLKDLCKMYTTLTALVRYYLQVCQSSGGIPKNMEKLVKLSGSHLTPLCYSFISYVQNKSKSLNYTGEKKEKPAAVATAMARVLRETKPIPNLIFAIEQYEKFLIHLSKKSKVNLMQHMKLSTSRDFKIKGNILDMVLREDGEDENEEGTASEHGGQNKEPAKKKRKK

B1: ICL14FF (dsDNA)
DNA 1: CATTGTGAATTCGCCTCTCTGTCTAGCCGAAGCTCGAAACGATCTTGTGC
DNA 2: GTCCATCAAAGTTCGACTGTGCGGCTAGACAGAGAGGCGAATTCACAATG
DNA 3: GCACAAGATCGTTTCGAGCTT
DNA 4: GTCGAACTTTGATGGAC
- binding result [1]: binds

B2: ICL14FF-XL (dsDNA)
DNA 1: B1 DNA 1
DNA 2: B1 DNA 2
DNA 3: GCACAAGATCGTTTCGAGCTT
DNA 4: GTCGAACTTTGATGGAC
modifications: 4,5',8-trimethylpsoralen (TMP) interstrand crosslink between S5 and S6; crosslinked bases bold in original, not recoverable from text
- binding result [2]: binds
